Measured values published in PMC9486944, “Structurally Informed Mutagenesis of a Stereochemically Promiscuous Aldolase Produces Mutants That Catalyze the Diastereoselective Syntheses of All Four Stereoisomers of 3-Deoxy-hexulosonic Acid” (ACS Catalysis, 2022).

Tests used:
SsKDG-aldolase = target: T1, SsKDG-aldolase (Saccharolobus solfataricus, UniProt O54288, T157V/A198L); assay: X-ray crystal structure; assay type: binding; details: Variant 3; 2 min soak in 30 mM ligand; active site, covalent (Lys155 Schiff base)
T1 construct: full length, pET-3a in E. coli BL21 (DE3); heat treatment, anion exchange, gel filtration; no tag mentioned; 293 C-alpha positions; tetramer
Text: X-ray crystal structure on SsKDG-aldolase | which enabled us to determine the structure of the […] complex

[1] = target: SsKDG-aldolase Variant 2 (T157V/D181Q/A198L) (Sulfolobus solfataricus); assay: crystal structure; hanging-drop vapor diffusion at 18 °C; 11–15% PEG4K, 4–12% isopropanol, 0.1 M HEPES pH 5.9–6.8; unsoaked crystals, crystals soaked in 30 mM 3-deoxy-hexulosonic acid, Variant 2 also cocrystallized with 100 mM pyruvate
purified protein [2] = substrate: O=C[C@H](O)CO; assay: purified protein; details: 50 mM sodium phosphate pH 6.0, 70 °C
purified protein [3] = substrate: O=C[C@@H](O)CO; assay: purified protein; details: 50 mM sodium phosphate pH 6.0, 70 °C
[4] = substrate: CC(=O)C(=O)O; assay: thiobarbituric acid assay of aldol product; assay type: biochemical, Saccharolobus solfataricus; details: 50 mM sodium phosphate pH 6.0, 70 °C
Text: thiobarbituric acid assay of aldol product on SsKDG-aldolase

[5] = Variant 3, near-saturating pyruvate
[6] = Variant 3, near-saturating D-glyceraldehyde
[7] = Variant 4, near-saturating pyruvate
[8] = Variant 4, near-saturating D-glyceraldehyde

O=C(O)C(=O)C[C@@H](O)[C@@H](O)CO [L-KDGlc]
X-ray crystal structure (SsKDG-aldolase): which enabled us to determine the structure of the L-KDGlc complex

SsKDG-aldolase Variant 2 (T157V/D181Q/A198L) (enzyme)
stoichiometry N [1]: 4

B1: SsKDG-aldolase (Saccharolobus solfataricus; A198L/T157V) (protein)
chain: PEIITPIITPFTKDNRIDKEKLKIHAENLIRKGIDKLFVNGTTGLGPSLSPEEKLENLKAVYDVTNKIIFQVGGLNLDDAIRLAKLSKDFDIVGIASYAPYYYPRMSEKHLVKYFKTLCEVSPHPVYLYNYPTATGKDIDAKVAKEIGCFTGVKDVIENIIHTLDYKRLNPNMLVYSGSDMLIATVASTGLDGNVALGSNYLPEVTVTIKKLAMERKIDEALKLQFLHDEVIEASRIFGSLSSNYVLTKYFQGYDLGYPRPPIFPLDDEEERQLIKKVEGIRAKLVELKILKE
notes: full length, pET-3a in E. coli BL21 (DE3); heat treatment, anion exchange, gel filtration; no tag mentioned; 293 C-alpha positions; tetramer
Km (purified protein [2]; [5]): 19.5 (±0.2) mM
Vmax (purified protein [2]; [5]): 1.8 µmol/min/mg
Km (purified protein [3]; [5]): 37.6 (±0.2) mM
Vmax (purified protein [3]; [5]): 6.1 µmol/min/mg
Km [4, 6]: 2.9 (±0.1) mM
Vmax [4, 6]: 1.7 µmol/min/mg

B2: SsKDG-aldolase (Saccharolobus solfataricus; A198F/Y103F/Y130F) (protein)
chain: PEIITPIITPFTKDNRIDKEKLKIHAENLIRKGIDKLFVNGTTGLGPSLSPEEKLENLKAVYDVTNKIIFQVGGLNLDDAIRLAKLSKDFDIVGIASYAPYFYPRMSEKHLVKYFKTLCEVSPHPVYLFNYPTATGKDIDAKVAKEIGCFTGVKDTIENIIHTLDYKRLNPNMLVYSGSDMLIATVASTGLDGNVAFGSNYLPEVTVTIKKLAMERKIDEALKLQFLHDEVIEASRIFGSLSSNYVLTKYFQGYDLGYPRPPIFPLDDEEERQLIKKVEGIRAKLVELKILKE
notes: as for B1
Km (purified protein [2]; [7]): 6.9 (±0.2) mM
Vmax (purified protein [2]; [7]): 0.11 µmol/min/mg
Km (purified protein [3]; [7]): 6.3 (±0.18) mM
Vmax (purified protein [3]; [7]): 0.06 µmol/min/mg
Km [4, 8]: 0.3 (±0.04) mM
Vmax [4, 8]: 0.09 µmol/min/mg
